Data as given in paper doi:10.1101/756791 (bioRxiv, 2019).

What was measured:
[1] = biological target: T1, Rpn10/S5a (UIM motifs: 196-306aa) (UniProt P55036 196-306); assay: ITC
T1 sequence (looked up): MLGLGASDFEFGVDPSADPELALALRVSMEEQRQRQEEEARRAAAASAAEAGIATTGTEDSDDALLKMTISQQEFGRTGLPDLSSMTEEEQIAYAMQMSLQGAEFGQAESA

[2] = biological target: hRpn13 (Pru domain: 1-150aa) (human, UniProt Q16186 1-150); assay: other fluorescence titration
[3] = biological target: T1, Rpn10/S5a (UIM motifs: 196-306aa); assay: NMR titration
[4] = biological target: T1, Rpn10/S5a (UIM motifs: 196-306aa); assay: NMR titration; remark: listed apart in the source

Sequence of hRpn13 (Pru domain: 1-150aa) (Q16186 1-150): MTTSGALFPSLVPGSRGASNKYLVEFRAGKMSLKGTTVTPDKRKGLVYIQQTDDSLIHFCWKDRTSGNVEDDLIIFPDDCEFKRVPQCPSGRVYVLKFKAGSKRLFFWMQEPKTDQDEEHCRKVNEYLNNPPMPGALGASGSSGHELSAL

B1: viral Ubiquitin from Autographa Californica Multiple Nucleo-Polyhedrosis Virus (AcMNPV) (natural protein)
chain: not shown
With B1 the Kd [1] was 85 µM, the dH [1] was -4.5 ± 0.3 kcal/mol and the “stoichiometry N” value [1] was 2 ± 0.1. The Kd [2] was 0.04 µM, the Kd [3] was 78 µM and the “KD of the UIM1 site” value [4] was 331 µM. For the same binder, the “KD of the UIM2 site” value [4] was 21 µM.
